Reference: patent US20110251266, “APTAMER FOR NGF AND USE THEREOF” (Shionogi & Co., Ltd., published 2011)

Biological target: beta-NGF (nerve growth factor) (Homo sapiens, UniProt P01138 P01138:122-241)
Assay: cell_activity; Neuroscreen-1 neurite outgrowth; 92% inhibition at 300 nM (Table 5)
Settings: tags: R&D Systems human NGF; chain copies: 2

beta-NGF (nerve growth factor), sequence (P01138 122-241, one chain of several): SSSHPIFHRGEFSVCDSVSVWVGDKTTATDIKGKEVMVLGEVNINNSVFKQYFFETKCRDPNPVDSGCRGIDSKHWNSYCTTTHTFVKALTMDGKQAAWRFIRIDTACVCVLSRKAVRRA

In the case of GGGAAGCCUGUGGAGCUGCAGGAUGAAAAAAACCCAAA (ssRNA, 2'-F pyrimidines) [SEQ35 aptamer], the IC50 is reported as 91.5 nM.
